These results are taken from paper doi:10.1101/2025.11.24.690255v1.

Numbering of substitutions follows the chain as printed. Names may count otherwise.

B1: β-glucosidase B (BglB) (Paenibacillus polymyxa; N160L) (protein)
chain: MSENTFIFPATFMWGTSTSSYQIEGGTDEGGRTPSIWDTFCQIPGKVIGGDCGDVACDHFHHFKEDVQLMKQLGFLHYRFSVAWPRIMPAAGIINEEGLLFYEHLLDEIELAGLIPMLTLYHWDLPQWIEDEGGWTQRETIQHFKTYASVIMDRFGERILWWNTINEPYCASILGYGTGEHAPGHENWREAFTAAHHILMCHGIASNLHKEKGLTGKIGITLNMEHVDAASERPEDVAAAIRRDGFINRWFAEPLFNGKYPEDMVEWYGTYLNGLDFVQPGDMELIQQPGDFLGINYYTRSIIRSTNDASLLQVEQVHMEEPVTDMGWEIHPESFYKLLTRIEKDFSKGLPILITENGAAMRDELVNGQIEDTGRHGYIEEHLKACHRFIEEGGQLKGYFVWSFLDNFEWAWGYSKRFGIVHINYETQERTPKQSALWFKQMMAKNGF
B2: β-glucosidase B (BglB) (Paenibacillus polymyxa; N160C) (protein)
chain: B1 chain with L160C
B3: β-glucosidase B (BglB) (Paenibacillus polymyxa; N160G) (protein)
chain: B1 chain with L160G
B4: β-glucosidase B (BglB) (Paenibacillus polymyxa; N160S) (protein)
chain: B1 chain with L160S
B5: β-glucosidase B (BglB) (Paenibacillus polymyxa; N160M) (protein)
chain: B1 chain with L160M

Substrate in this series: O=[N+]([O-])c1ccc(O[C@@H]2O[C@H](CO)[C@@H](O)[C@H](O)[C@H]2O)cc1
The series can be described thus: purified protein. Particulars: 0-100 mM substrate, 15 min.
For B1, the Km (in general, the concentration of substrate that gives half-maximal velocity) came to 13.8 ± 1.6 mM; the kcat (as a rule, the number of substrate molecules converted per active site and unit of time at saturation) stood at 3.245 ± 0.127 s⁻¹.
The like results for B2 were, in that order, 4.3 ± 0.3 mM and 9.147 ± 0.157 s⁻¹.
As for B3, the Km is recorded as 3.5 ± 0.2 mM and the kcat is 9.81 ± 0.137 s⁻¹.
As to B4, the Michaelis constant (Km) was 4.9 ± 0.2 mM and the kcat is 4.527 ± 0.05 s⁻¹.
Turning to B5, the Km is listed as 14.1 ± 1.3 mM and the kcat was determined as 4.162 ± 0.122 s⁻¹.
